Assay results: paper doi:10.1101/2022.01.15.476311

Target: Toll-like receptor 2 (TLR2) purified protein (UniProt O60603)
Assay: BLI

UniProt O60603, sequence (O60603 21-588): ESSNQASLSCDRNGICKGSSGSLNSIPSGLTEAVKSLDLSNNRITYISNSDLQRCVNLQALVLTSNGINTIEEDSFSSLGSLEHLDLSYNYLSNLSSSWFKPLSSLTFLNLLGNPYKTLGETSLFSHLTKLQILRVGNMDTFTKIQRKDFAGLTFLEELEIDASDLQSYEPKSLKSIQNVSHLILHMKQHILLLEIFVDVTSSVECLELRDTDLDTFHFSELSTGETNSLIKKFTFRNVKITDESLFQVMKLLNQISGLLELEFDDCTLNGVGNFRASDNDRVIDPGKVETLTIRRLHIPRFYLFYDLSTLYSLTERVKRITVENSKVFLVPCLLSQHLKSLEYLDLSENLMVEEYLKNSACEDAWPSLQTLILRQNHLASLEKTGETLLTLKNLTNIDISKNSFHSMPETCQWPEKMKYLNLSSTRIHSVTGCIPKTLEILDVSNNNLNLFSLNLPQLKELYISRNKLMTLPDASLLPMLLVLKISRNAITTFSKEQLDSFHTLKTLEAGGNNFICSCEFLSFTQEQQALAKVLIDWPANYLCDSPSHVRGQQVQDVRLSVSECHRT

Substance PAM3CSK4 (peptide) has a Kd of 1.67 µM.
